T1: TGFβR2(-1) frameshift variant (deletion of one adenine in the 10-adenine microsatellite) peptide on … (human)
T1 peptide: VALMSAMTTSSSQKN

B1: TCR1414_1 (TCR, V domains shown)
Valpha: KQEVTQIPAALSVPEGENLVLNCSFTDSAIYNLQWFRQDPGKGLTSLLLIQSSQREQTSGRLNASLDKSSGRSTLYIAASQPGDSATYLCAVKSGAGSYQLTFGKGTKLSVIP
Vbeta: NAGVMQNPRHLVRRRGQEARLRCSPMKGHSHVYWYRQLPEEGLKFMVYLQKENIIDESGMPKERFSAEFPKEGPSILRIQQVVRGDSAAYFCASSPFQETQYFGPGTRLLVL
B2: TCR1414_2 (TCR, V domains shown)
Valpha: GIQVEQSPPDLILQEGANSTLRCNFSDSVNNLQWFHQNPWGQLINLFYIPSGTKQNGRLSATTVATERYSLLYISSSQTTDSGVYFCAAPSGNTPLVFGKGTRLSVIA
Vbeta: DVKVTQSSRYLVKRTGEKVFLECVQDMDHENMFWYRQDPGLGLRLIYFSYDVKMKEKGDIPEGYSVSREKKERFSLILESASTNQTSMYLCASRVSGANVLTFGAGSRLTVL

Assays:
[1] = molecular target: TGFβR2(-1) peptide … presented on HLA-DRA/HLA-DRB1*04:01 (human); experiment: cell-based or functional assay
[2] = molecular target: T1, TGFβR2(-1) frameshift variant (deletion …); experiment: IFNγ ELISA after 16 h; transduced human CD4+ T cells with BSM cells pulsed with decreasing amounts of peptide; lower bound of the printed range; full-length, on cells
[3] = molecular target: T1, TGFβR2(-1) frameshift variant (deletion …); experiment: IFNγ ELISA after 16 h; transduced human CD4+ T cells with BSM cells pulsed with decreasing amounts of peptide; upper bound of the printed range; full-length, on cells

Row | Binder | lowest peptide concentration recognized (IFNy ELISA, BSM cells loaded with different concentrations of peptide) [1] [nM] | EC50 of peptide [2] [nM] | EC50 of peptide [3] [nM]
1 | B1 | 1 | > 1 | < 10
2 | B2 | 1 | > 1 | < 10

Reference: patent EP4223782A1 (dated 2023)
